What was measured:
[1] = target: T1, human tumor necrosis factor alpha (hTNF-α)-His (human, UniProt P01375); assay: BLI; settings: both partners purified
T1 construct: also called hTNF-a

[2] = target: light-chain single-domain antibody L6 (mCD16-specific VHHL); assay: BLI; settings: both partners purified

T1 sequence (P01375 whole entry): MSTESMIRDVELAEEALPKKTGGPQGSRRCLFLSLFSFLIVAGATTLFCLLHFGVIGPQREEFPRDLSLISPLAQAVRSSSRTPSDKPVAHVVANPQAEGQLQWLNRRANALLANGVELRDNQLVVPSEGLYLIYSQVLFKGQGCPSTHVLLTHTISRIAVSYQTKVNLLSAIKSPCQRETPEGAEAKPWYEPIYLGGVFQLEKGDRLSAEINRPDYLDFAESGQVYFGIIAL

Row | Binder | binding result [1] | Kd [2] [nM]
1 | hIgG4 bsAb by modular replacement: golimumab (Gmab) heavy chain with L6 light chain (bispecific antibody, V domains shown) VH: QVQLVESGGGVVQPGRSLRLSCAASGFIFSSYAMHWVRQAPGNGLEWVAFMSYDGSNKKYADSVKGRFTISRDNSKNTLYLQMNSLRAEDTAVYYCARDRGIAAGGNYYYYGMDVWGQGTTVTVSS VL: EIVLTQSPGTLSLSPGERATLSCRASGSTFSSYTLAWYQQKPGQAPRLLIYIYSDGGRTSRATGIPDRFSGSGSGTDLTLTISRLEPEDFAVYYCNAESPFYDYDYWGKGTKVEIK | binds | –
2 | mouse CD16 (mCD16), his-tagged (receptor, UniProt P08508 31-215, looked up) ALPKAVVKLDPPWIQVLKEDMVTLMCEGTHNPGNSSTQWFHNGRSIRSQVQASYTFKATVNDSGEYRCQMEQTRLSDPVDLGVISDWLLLQTPQRVFLEGETITLRCHSWRNKLLNRISFFHNEKSVRYHHYKSNFSIPKANHSHSGDYYCKGSLGSTQHQSKPVTITVQDPATTSSISLVWYHT | – | 54.3 ± 1.41

Reference: publication PMC12598741 (Antibody Therapeutics, 2025)
